Kd data for two substances are collected here from article PMC10746276.

This data set has as its target CsrA-His6 (Escherichia coli) (UniProt P69913). The data set can be described thus: EMSA. The settings on record: EMSA: 0.1 nM RNA, 10 mM MgCl2, 100 mM KCl, 32.5 ng yeast RNA, 20 mM DTT, 7.5% glycerol, 4 U SUPERasin, 30 min 37 C (pH not given), footprint: 2 nM RNA. On the technique in general: A gel shift assay detects complexes by their altered migration in electrophoresis.

Chain of CsrA-His6 (Escherichia coli) (P69913 whole entry): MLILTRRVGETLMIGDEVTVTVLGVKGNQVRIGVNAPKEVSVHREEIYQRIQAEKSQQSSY

What is called Kd is a measure of binding affinity in units of concentration. Regarding “yqjD leader full-length, BS4 mutant (CUGGA to GUGGA)”, the equilibrium dissociation constant (Kd) came out at 25 nM.

As for “yqjD leader WT, full-length (yqjC-yqjD intercistronic RNA)”, the Kd was 8 nM. Further, under “second shifted species at 30 nM CsrA and higher”, the Kd stood at 9 nM.
